Measured values as given in patent US20230331840A1 (FAPON BIOTHERAPY, published 2023).
Values belong to the binder of their own block, whether it stands above or below them.

Biological target: T1, Human CD22 extracellular segment conjugated His label (human, UniProt P20273 20-687)
T1 construct: extracellular domain; Bought recombinant protein; also called h CD22-His; hCD22-His; not shown: His label
Assay: ELISA, h CD22-His coated at 2 µg/ml, antibody in 3-fold dilutions
Description: M971 was a 7 epitope humanized CD22 antibody. The specific sequence and information can be found publicly. The antibody was synthesized by Shenzhen FeipengBiological therapy Co., LTD.

binding result: binds
B1: CD22 antibody FC2-117 (antibody, IgG1, V domains shown)
VH: DVQLQESGPGLVKPSQSLSLTCSVTGYSITSGYYWNWIRQFPGNKLEWMGYISYDGSNNYNPSLKNRISITRDTSKNQFFLKLNSVTTEDTATYYCTKGGYGYYFDYWGQGTTLTVSS
VL: DIQMTQSPASLSASVGETVTITCRASGNIHNYLAWYQQKQGKSPQLLVYNAKTLADGVPSRFSGSGSGTQYSLKINSLQPEDFGSYYCQHFWSTPPTFGGGTKLEIKR
notes: Mouse hybridoma monoclonal antibody

binding result: binds
B2: CD22 antibody FC2-201 (antibody, IgG2b, V domains shown)
VH: KVQLQQSGAGLVKPGASVKLSCKASGYTFTDSILHWLMQRSGQGLEWIGWFYPGSGSIKYNEKFKDKATLTADKSSSTVYMELSRLTSEDSAFYFCARHEDGYDGFAYWGQGTLVTVSA
VL: ENVLTQSPAIMSASLGEKVTMSCRASSSVNYIFWYQQKSDASPKLWIYYTSNLAPGVPARFSGSGSGNSYSLTISSMEGEDAATYYCQQFTSSPFTFGSGTKLEIKR
notes: as for B1
